The results in this text go back to paper PMC9687980.

The test deals with human Fc fusion angiotensin-converting enzyme 2 (hACE2-Fc) (human) (UniProt Q9BYF1). In words: BLI. Background: In BLI a coated tip is dipped into the sample, and binding shifts an interference pattern.
human Fc fusion angiotensin-converting enzyme 2 (hACE2-Fc) (human), sequence (Q9BYF1 18-740): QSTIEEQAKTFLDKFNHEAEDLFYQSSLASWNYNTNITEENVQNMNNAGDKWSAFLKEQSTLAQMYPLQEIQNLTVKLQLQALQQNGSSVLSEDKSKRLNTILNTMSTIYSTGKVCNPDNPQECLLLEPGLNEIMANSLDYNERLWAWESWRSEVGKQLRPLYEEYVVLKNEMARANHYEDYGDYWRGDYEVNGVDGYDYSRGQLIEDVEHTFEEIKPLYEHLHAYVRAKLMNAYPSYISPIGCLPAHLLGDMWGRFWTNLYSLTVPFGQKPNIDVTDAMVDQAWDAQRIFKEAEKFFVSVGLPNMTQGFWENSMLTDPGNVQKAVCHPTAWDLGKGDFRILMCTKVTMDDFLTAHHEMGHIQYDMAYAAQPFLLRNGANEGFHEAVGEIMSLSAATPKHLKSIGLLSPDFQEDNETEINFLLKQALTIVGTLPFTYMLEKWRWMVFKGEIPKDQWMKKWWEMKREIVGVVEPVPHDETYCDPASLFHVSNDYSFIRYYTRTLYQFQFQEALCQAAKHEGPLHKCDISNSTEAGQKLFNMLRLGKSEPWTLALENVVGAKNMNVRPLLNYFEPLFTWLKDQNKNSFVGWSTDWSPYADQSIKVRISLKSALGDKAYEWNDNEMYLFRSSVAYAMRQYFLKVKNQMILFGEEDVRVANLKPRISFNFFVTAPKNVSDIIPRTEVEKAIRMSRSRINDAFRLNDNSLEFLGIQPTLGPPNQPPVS

In general, Kd refers to a measure of binding affinity in units of concentration. Broadly, the koff is the rate constant with which the complex falls apart. The low end stands for a long-lived complex, the high end for a short-lived complex. As usually defined, the kon is a measure of how fast the partners come together. “MBP-fused spike receptor binding domain of SARS-CoV-2 Omicron BA.1 (MBP-RBDomi) (domain or fragment)”: the Kd amounted to 10.1 nM, the koff worked out at 0.00174 s⁻¹ and the kon was determined as 172000 M⁻¹ s⁻¹.

Substance “spike RBD of SARS-CoV-2 Omicron expressed in a mammalian system (domain or fragment)” yielded a Kd of 7.16 nM, a koff of 0.00161 s⁻¹ and a kon of 226000 M⁻¹ s⁻¹.
